Laboratory results as given in US7939057B2, “Methods and compositions for modulating the mobilization of stem cells” (Mount Sinai School of Medicine, priority 2006, dated 2011).

Assays:
rhCXCL12α = test: Degradation of rhCXCL12α by BMEF of G-CSF-treated mice (Western blot); assay type: biochemical, human; conditions: 24 h at 37° C.
Description: PBS or BMEF (35 μl) from G-CSF-treated and control mice was incubated with 50 ng of rhCXCL12α (R&D Systems) for 24 h at 37° C. The reactions were stopped by the addition of sample buffer containing protease inhibitor cocktail (Sigma) and DTT (final concentration 10 mM) followed by boiling for 5 min at 95° C. Samples were separated by electrophoresis on 16% polyacrylamide Tris-tricine gel and transferred onto PVDF membrane (0.2 μm pore size, Millipore, Bedford, Mass.). Membranes were blocked in TBS with 0.05% Tween 20 and 4% milk, incubated with 0.5 μg/ml of mouse monoclonal anti-CXCL12 antibody (clone 79018.111, R&D Systems) then with 1/20,000 dilution of horseradish peroxidase-anti-mouse IgG (Jackson Immunoresearch, West Grove, Pa.). Signal was detected with the enhanced chemiluminescence method (West Dura Extended Duration Substrate, Pierce, Rockford, Ill.).

α1(I) collagen = test: Q-PCR of α1(I) collagen in BMNCs after G-CSF; assay type: in vivo; conditions: bone marrow of Cgt+/+ mice after G-CSF; n=4, p<0.05
Description: (§1) Methods, primers and PCR conditions are available in Table S3. Briefly, total RNA was extracted from BMNC using TRIzol solution (Invitrogen, Carlsbad, Calif.). The bone carcass was then immersed in liquid nitrogen, and pulverized into powder followed by RNA extraction with TRIzol. Total RNA (1 μg) was treated with DNaseI (Invitrogen, Carlsbad, Calif.), and reverse transcribed using first strand cDNA synthesis with random primers (Promega, Madison, Wis.). Q-PCR was performed using SYBR Green (Molecular Probes) on an ABI PRISM 7900HT Sequence Detection System (Applied Biosystems, Foster city, CA). All experiments were done in triplicate and normalized to GAPDH.

Runx2 = test: Q-PCR of Runx2 in BMNCs after G-CSF; assay type: in vivo; conditions: bone marrow of Cgt+/+ mice after G-CSF; n=4, p<0.001
Description: as §1

[1] = tested on: hematopoietic stem and progenitor cells (HSPCs); test: G-CSF-induced mobilization of hematopoietic progenitors (circulating CFU-C); assay type: in vivo, mice
Description: To induce HSPC mobilization, mice were injected with recombinant human G-CSF (Filgrastim, Amgen, Thousand Oaks, Calif., 250 μg/kg/day, every 12 hours, 8 divided doses, s.c.) in PBS supplemented with 0.1% endotoxin free bovine serum albumin (BSA) or fucoidan (Sigma; 2 doses of 100 mg/kg with 2 h interval, i.p.) in PBS. Blood was harvested 3 h (G-CSF) or 1 h (fucoidan). CFU-C assays were carried out as previously described (Katayama, Y., and Frenette, P. S. (2003). Galactocerebrosides are required postnatally for stromal-dependent bone marrow lymphopoiesis. Immunity 18, 789-800).
A chronic guide cannula (1.0 mm) was implanted stereotaxically into the lateral ventricle (coordinates AP, −0.7 mm; DV, −2.4 mm; ML, 1.5 mm, from bregma). One week after implantation, mice received a reduced dose of G-CSF (25 μg/kg daily for 4 doses) either by ICV infusion (rate: 0.4 μL/min) or by s.c. injection.
Newborn C57BL/6 mice were injected s.c. with 6OHDA (100 mg/kg, Sigma) or vehicle (saline) on postnatal days 2, 4, 6, 8 and 9. HSPC mobilization was induced at 3 weeks of age. For SNS disruption in adult C57BL6 mice, 4 week-old animals were injected i.p. with 2 doses of 6OHDA or vehicle, 100 mg/kg on day 0, 250 mg/kg on day 2, and G-CSF treatment was begun on day 5. For β-adrenergic receptor blockade, 4 week-old C57BL/6 mice were treated with propranolol (0.5 g/L in drinking water, Sigma) or control pure water for 3 weeks prior to mobilization. For rescue experiments, clenbuterol (2 mg/kg/day, i.p.) was injected starting day −2 prior to and continued during G-CSF treatment.

bone lining osteoblasts = test: Morphology of bone lining osteoblasts (CD44 immunofluorescence); assay type: in vivo; conditions: G-CSF-treated wild-type C57BL/6 mice
Description: For the morphology of bone lining osteoblasts, femoral bones were fixed overnight in formalin, decalcified in 10% EDTA (pH 7.4) for 48 h, snap-frozen in isopentane chilled in liquid nitrogen, and sectioned at 10 μm thickness. Sections were fixed with 4% parafolmaldehyde for 20 min, stained with anti-CD44 (KM201) followed by donkey Alexa-488-anti-rat IgG (Molecular Probes, Eugene, Oreg.), and mounted in Vectashield Mounting Medium with DAPI (Vector Laboratories). TUNEL assay was done using an In Situ Cell Death Detection Kit (Roche Applied Science, Penzberg, Germany) according to manufacturer's recommendation. Images were captured and analyzed with Olympus BX61WI (Hauppauge, N.Y.) with 60× objective mounted on a motorized X, Y stage and a Z focusing drive (Applied Scientific Instrumentation, Eugene, Oreg.). Images are collected with Coolsnap HQ digital camera (Ropert Scientific, Munich, Germany). A Dell workstation with SlideBook software (Intelligent Imaging Innovations, Denver, Colo.) provided for synchronization of components, data acquisition and image deconvolution.

CXCL12 = CXCL12 protein by ELISA in BMEF and bone extracts after G-CSF; assay type: in vivo, mice
Description: CXCL12 ELISA was done exactly as described (Petit, I., Szyper-Kravitz, M., Nagler, A., Lahav, M., Peled, A., Habler, L., Ponomaryov, T., Taichman, R. S., Arenzana-Seisdedos, F., Fujii, N., et al. (2002). G-CSF induces stem cell mobilization by decreasing bone marrow SDF-1 and up-regulating CXCR4. Nat Immunol 3, 687-694). Mouse plasma osteocalcin was measured using ELISA kit (Biomedical Technologies Inc., Stoughton, Mass.) according to manufacturer's recommendation.
BMEF was obtained by flushing two femurs with one ml of ice-cold PBS, and the supernatant was harvested after 25 strokes of gentle pipetting followed by centrifugation at 400 g for 5 min. Bone protein extraction was performed as described (Pfeilschifter, J., Laukhuf, F., Muller-Beckmann, B., Blum, W. F., Pfister, T., and Ziegler, R. (1995). Parathyroid hormone increases the concentration of insulin-like growth factor-I and transforming growth factor beta I in rat bone. J Clin Invest 96, 767-774). After extraction, the samples were dialyzed extensively against cold PBS (pH 7.4) for 72 h with a dialysis cassette of 3500 MWCO (Pierce). Volume of dialyzed extracts was measured, centrifuged at 16,000 g for 15 min at 4° C., and the supernatants stored at −80° C. CXCL12 levels in BMEF and bone extracts were determined by ELISA.

B1: G-CSF: recombinant human G-CSF (Filgrastim, Amgen), hematopoietic cytokine used to elicit HSPC mobilization (protein, UniProt P09919 31-207, looked up)
Granulocyte …: TPLGPASSLPQSFLLKCLEQVRKIQGDGAALQEKLVSECATYKLCHPEELVLLGHSLGIPWAPLSSCPSQALQLAGCLSQLHSGLFLYQGLLQALEGISPELGPTLDTLQLDVADFATTIWQQMEELGMAPALQPTQGAMPAFASAFQRRAGGVLVASHLQSFLEVSYRVLRHLAQP
modifications: filgrastim
notes: recombinant human G-CSF (Filgrastim, Amgen), hematopoietic cytokine used to elicit HSPC mobilization
- degradation of recombinant CXCL12 by BMEF (rhCXCL12α; BMEF from G-CSF-treated Cgt+/+ mice): completely degraded
- degradation of recombinant CXCL12 by BMEF (rhCXCL12α; BMEF from G-CSF-treated Cgt−/− mice): complete degradation
- α1(I) collagen, reduction (α1(I) collagen): 92%
- levels of Runx2, reduction (Runx2): 65%
- HSPC mobilization by route of G-CSF ([1]; C57BL/6 mice, ICV infusion vs s.c. injection, 25 μg/kg daily for 4 doses): robust HSPC mobilization occurred only when mice were treated systemically
- G-CSF-induced mobilization in chimeric mice ([1]; CD45.1 wild-type mice reconstituted with Cgt+/+ or −/− BM): similar
- G-CSF-induced mobilization of HSPCs ([1]; Cgt−/− mice compared to Cgt+/− or +/+ littermates): little mobilization
- G-CSF-triggered mobilization of CFU-Cs and Lin-Sca-1+c-kit+ cells ([1]; Dbh−/− compared to Dbh+/− littermates): dramatically compromised
- numbers of circulating progenitors after G-CSF ([1]; Lepr(db/db) vs Lepr(+/db) mice, human G-CSF 250 μg/kg/day, n=5): no difference
- circulating CFU-Cs elicited by G-CSF ([1]; Rag 1−/− and IL7Rα−/− mice, data not shown): elicited at levels similar to those of wild-type mice
- appearance of bone-lining osteoblasts (bone lining osteoblasts): flattened appearance with shorter projections
- CXCL12 protein in BMEF (CXCL12; Cgt+/+ and +/− mice after G-CSF injection): greatly reduced
- CXCL12 protein in BMEF (CXCL12; Cgt−/− mice after G-CSF): significantly reduced
- CXCL12 protein levels in bone (CXCL12; Cgt−/− mice following G-CSF): no reduction
- CXCL12 in bone protein extracts (CXCL12; Dbh+/− mice following G-CSF): reduced
- CXCL12 levels in bone protein extracts (CXCL12; Dbh−/− animals following G-CSF): maintained
- CXCL12 protein in bone (CXCL12; normal littermate mice following G-CSF): decreased
